From patent US20230167164A1 (IMMUNOWAKE, published 2023)

Experiments:
[1] = molecular target: human PD-1 overexpressed on HEK-Blue reporter cells (human, UniProt Q15116 25-288); test: cell-based or functional assay
[2] = molecular target: human IL-12 receptor complex (human, UniProt P42701 24-662; Q99665 24-862); test: cell-based or functional assay
human IL-12 receptor complex, sequence (Q99665 24-862, chain 2 of 2, other chains not shown): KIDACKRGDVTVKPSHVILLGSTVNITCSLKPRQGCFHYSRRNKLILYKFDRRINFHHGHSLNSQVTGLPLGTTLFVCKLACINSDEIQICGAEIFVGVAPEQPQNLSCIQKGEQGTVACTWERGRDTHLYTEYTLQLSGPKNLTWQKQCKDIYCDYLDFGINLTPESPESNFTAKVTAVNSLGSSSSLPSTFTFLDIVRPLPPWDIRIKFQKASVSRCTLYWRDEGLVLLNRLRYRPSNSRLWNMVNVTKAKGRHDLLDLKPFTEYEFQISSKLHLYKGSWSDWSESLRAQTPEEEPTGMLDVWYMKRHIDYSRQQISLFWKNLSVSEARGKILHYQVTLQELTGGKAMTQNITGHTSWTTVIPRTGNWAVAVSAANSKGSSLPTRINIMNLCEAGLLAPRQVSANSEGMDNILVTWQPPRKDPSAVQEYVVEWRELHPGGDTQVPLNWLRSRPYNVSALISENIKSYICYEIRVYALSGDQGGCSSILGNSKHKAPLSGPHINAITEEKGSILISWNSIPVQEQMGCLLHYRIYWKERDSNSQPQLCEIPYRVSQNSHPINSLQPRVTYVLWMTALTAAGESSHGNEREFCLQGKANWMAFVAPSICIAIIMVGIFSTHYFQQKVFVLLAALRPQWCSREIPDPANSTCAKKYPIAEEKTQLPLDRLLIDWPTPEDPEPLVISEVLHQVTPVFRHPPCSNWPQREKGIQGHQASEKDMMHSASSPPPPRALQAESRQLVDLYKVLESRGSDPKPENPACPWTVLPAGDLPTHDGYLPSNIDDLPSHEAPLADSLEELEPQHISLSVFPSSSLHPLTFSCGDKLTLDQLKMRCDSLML

human PD-1 overexpressed on HEK-Blue reporter cells, sequence (Q15116 25-288): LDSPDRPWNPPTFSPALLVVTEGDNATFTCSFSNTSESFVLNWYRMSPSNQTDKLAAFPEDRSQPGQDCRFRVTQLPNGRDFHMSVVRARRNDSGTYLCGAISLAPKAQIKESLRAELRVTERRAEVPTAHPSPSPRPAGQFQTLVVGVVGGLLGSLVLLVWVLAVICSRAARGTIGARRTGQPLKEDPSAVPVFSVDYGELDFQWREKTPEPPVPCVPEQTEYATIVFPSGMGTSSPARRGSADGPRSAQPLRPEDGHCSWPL

B1: PD-L1(mut2)-Fc/IL-12(E59A/F60A) (Fc fusion)
chain 1: FTVTVPKDLYVVEYGSNMTIECKFPVEKQLDLAALQVYWMMEDKNIIQFVHGEEDLKVQHSSYRQRARLLKDQLSLGNAALQITDVKLQDAGVYTCLIAYKGADYKRITVKVNAPYNKINQRILVVDPVTSEHELTCQAEGYPKAEVIWTSSDHQVLSGKTTTTNSKREEKLFNVTSTLRINTTTNEIFYCTFRRLDPEENHTAELVIPELPLAHPPNERGGGGSGGGDKTHTCPPCPAPEDEGGPSVFLFPPKPKDTLMISRTPEVTCVVVDVSHEDPEVKFNWYVDGVEVHNAKTKPREEQYNSTYRVVSVLTVLHQDWLNGKEYKCKVSNKALPAPIEKTISKAKGQPREPQVYVYPPSREEMTKNQVSLTCLVKGFYPSDIAVEWESNGQPENNYKTTPPVLDEDGSFALVSKLTVDKSRWQQGNVFSCSVMHEALHNHYTQKSLSLSPGKGGGGSGGGIWELKKDVYVVELDWYPDAPGEMVVLTCDTPEEDGITWTLDQSSEVLGSGKTLTIQVKAAGDAGQYTCHKGGEVLSHSLLLLHKKEDGIWSTDILKDQKEPKNKTFLRCEAKNYSGRFTCWWLTTISTDLTFSVKSSRGSSDPQGVTCGAATLSAERVRGDNKEYEYSVECQEDSACPAAEESLPIEVMVDAVHKLKYENYTSSFFIRDIIKPDPPKNLQLKPLKNSRQVEVSWEYPDTWSTPHSYFSLTFCVQVQGKSKREKKDRVFTDKTSATVICRKNASISVRAQDRYYSSSWSEWASVPCSGGGGSGGGSGGGGSRNLPVATPDPGMFPCLHHSQNLLRAVSNMLQKARQTLEFYPCTSEEIDHEDITKDKTSTVEACLPLELTKNESCLNSRETSFITNGSCLASRKTSFMMALCLSSIYEDLKMYQVEFKTMNAKLLMDPKRQIFLDQNMLAVIDELMQALNFNSETVPQKSSLEEPDFYKTKIKLCILLHAFRIRAVTIDRVMSYLNAS
chain 2: FTVTVPKDLYVVEYGSNMTIECKFPVEKQLDLAALQVYWMMEDKNIIQFVHGEEDLKVQHSSYRQRARLLKDQLSLGNAALQITDVKLQDAGVYTCLIAYKGADYKRITVKVNAPYNKINQRILVVDPVTSEHELTCQAEGYPKAEVIWTSSDHQVLSGKTTTTNSKREEKLFNVTSTLRINTTTNEIFYCTFRRLDPEENHTAELVIPELPLAHPPNERGGGGSGGGDKTHTCPPCPAPEKKGGPSVFLFPPKPKDTLMISRTPEVTCVVVDVSHEDPEVKFNWYVDGVEVHNAKTKPREEQYNSTYRVVSVLTVLHQDWLNGKEYKCKVSNKALPAPIEKTISKAKGQPREPQVYVLPPSREEMTKNQVSLLCLVKGFYPSDIAVEWESNGQPENRYMTWPPVLDSDGSFFLYSKLTVDKSRWQQGNVFSCSVMHEALHNHYTQKSLSLSPGK
IL-12 signal transduction, % of rIL-12, HEK-IL-12-PD-1 cells [1]: 25%
IL-12 signal transduction, % of rIL-12, HEK-IL-12 cells [2]: 1%
